Assay results reported in patent publication US20110059095A1 (Regeneron, published 2011).
Where no end group is shown, it is not given here. The star is where a group is joined. Biotin = O=C1N[C@H]2[C@H](CS[C@H]2CCCCC(=O)*)N1

T1: Peptide A (human PAR-2), unbiotinylated (Human)
T1 construct: also called Peptide A No Biotin
T1 peptide: GTNRSSKGRSLIGKVDGT

T2: Peptide B (human PAR-2), N-terminal biotinylated (Human)
T2 construct: also called Peptide B N-Term
T2 peptide: Biotin-GGGGSSLIGKVDGTSHVTG

T3: Peptide B (human PAR-2), C-terminal biotinylated (Human, not fully specified)
T3 construct: also called Peptide B C-Term
T3 peptide: SLIGKVDGTSHVTGGGGGS-biotin

T4: Peptide B (human PAR-2), unbiotinylated (Human)
T4 construct: also called Peptide B No Biotin
T4 peptide: SLIGKVDGTSHVTG

T5: Peptide A (human PAR-2), N-terminal biotinylated (Human, N-terminal biotin via G4S linker)
T5 construct: also called Peptide A N-Term
T5 peptide: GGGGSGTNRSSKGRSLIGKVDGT

T6: Peptide C (human PAR-2), C-terminal biotinylated (Human)
T6 construct: also called Peptide C C-Term
T6 peptide: SLIGKVGGGGS-biotin

T7: Peptide C (human PAR-2), N-terminal biotinylated (Human)
T7 construct: also called Peptide C N-Term
T7 peptide: Biotin-GGGGSSLIGKV


What was measured:
[1] = target: T1, Peptide A (human PAR-2), unbiotinylated; assay: SPR, antibody captured, steady state
Description: (§1) Equilibrium dissociation constants (KD values) for antigen binding to selected purified PAR-2 antibodies were determined by surface kinetics using a real-time surface plasmon resonance biosensor assay. Antibody was captured on either a rabbit anti-mouse IgG polyclonal antibody (GE Healthcare, Piscataway, N.J.) surface or a goat anti-human IgG polyclonal antibody (Jackson Immuno Research Lab, West Grove, Pa.) surface created through direct amine chemical coupling to a BIACORE™ CM5 sensor chip to form a captured antibody surface. […] Antigen-antibody binding and dissociation were monitored in real time at room temperature. Kinetic analysis was performed to calculate KD and half-life of antigen/antibody complex dissociation (Table 10). For those antibodies where no T_{1/2} value is shown, steady state analysis was used to calculate the KD value. NB: no binding observed under current experimental conditions. ND: not determined.

[2] = target: T8, Peptide A (human PAR-2), C-terminal biotinylated (Human, C-terminal biotin via G4S linker); assay: peptide ELISA
T8 construct: also called Peptide A C-Term
Description: (§2) Anti-PAR-2 antibodies were tested for their ability to bind to the PAR-2 peptides. Various PAR-2 Peptides (Table 3) were coated onto 96-well plates at a concentration of 2 μg/ml and incubated overnight followed by blocking in a suitable blocking agent for one hour. […] Purified anti-PAR-2 antibodies were added to the plate coated with PAR-2 peptides to a final concentration ranging from 0.2 to 2.0 μg/ml and incubated for one hour at room temperature. Detection of bound antibodies was determined with Horse-Radish Peroxidase (HRP) conjugated anti-mouse or human IgG (Jackson Immuno Research Lab, West Grove, Pa.) and developed by standard colorimetric response using tetramethylbenzidine (TMB) substrate. Absorbance was read at OD₄₅₀ for 0.1 second.

[3] = target: T2, Peptide B (human PAR-2), N-terminal …; assay: peptide ELISA
Description: as §2

[4] = target: T3, Peptide B (human PAR-2), C-terminal …; assay: peptide ELISA
Description: as §2

[5] = target: T4, Peptide B (human PAR-2), unbiotinylated; assay: peptide ELISA
Description: as §2

[6] = target: T5, Peptide A (human PAR-2), N-terminal …; assay: peptide ELISA
Description: as §2

[7] = target: T6, Peptide C (human PAR-2), C-terminal …; assay: peptide ELISA
Description: as §2

[8] = target: T1, Peptide A (human PAR-2), unbiotinylated; assay: peptide ELISA
Description: as §2

[9] = target: T7, Peptide C (human PAR-2), N-terminal …; assay: peptide ELISA
Description: as §2

[10] = target: T9, full length human PAR-2 (human, UniProt P55085 26-397); assay: cell ELISA, 10 ug/ml antibody
T9 construct: overexpressed on HEK293-derived 293/D9 cells; also called 293/D9/hPAR-2rec cells
T9 sequence (P55085 26-397 G138A limits assumed): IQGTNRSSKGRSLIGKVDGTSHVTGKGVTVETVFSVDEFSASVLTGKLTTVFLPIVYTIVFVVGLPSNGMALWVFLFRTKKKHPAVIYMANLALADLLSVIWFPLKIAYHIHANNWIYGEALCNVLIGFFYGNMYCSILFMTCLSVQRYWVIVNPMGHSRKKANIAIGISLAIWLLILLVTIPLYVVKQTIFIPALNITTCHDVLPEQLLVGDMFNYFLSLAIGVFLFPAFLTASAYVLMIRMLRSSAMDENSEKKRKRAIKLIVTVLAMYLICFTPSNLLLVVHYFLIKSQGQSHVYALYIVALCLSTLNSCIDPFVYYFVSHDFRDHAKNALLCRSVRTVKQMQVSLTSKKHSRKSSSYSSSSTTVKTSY
Text: HEK293 cells were transfected with an NF-κB-luciferase-IRES-eGFP reporter plasmid. […] A clonal cell line, named D9, having low background levels of luciferase activity and high levels of eGFP when induced with IL-1β was made by a series of successive sorts of cell populations using flow cytometry. The 293/D9 cell line was then separately transfected with human PAR-2 or mouse PAR-2 to create the stable cell lines 293/D9/h PAR-2rec and 293/D9/m PAR-2rec, respectively.
Binding of anti-PAR-2 antibodies to 293/D9/hPAR-2rec cells was determined by ELISA. 293/D9 and 293/D9/hPAR-2rec cells were plated at a density of 5×10⁴ cells/well in media and incubated overnight at 37° C. and 5% CO₂. Purified antibody was added to the cells to a final concentration of 10 μg/ml and incubated at room temperature for one hour. Cells were then fixed and washed before detection of bound antibodies with HRP conjugated anti-mouse IgG and developed by standard colorimetric response using TMB substrate. Absorbance was read at OD₄₅₀ for 0.1 second.

[11] = target: T4, Peptide B (human PAR-2), unbiotinylated; assay: SPR, antibody captured
Description: as §1

[12] = target: T1, Peptide A (human PAR-2), unbiotinylated; assay: SPR, antibody captured
Description: as §1

Binder | Kd [1] [nM] | OD450 [2] [od] | OD450 [3] [od] | OD450 [4] [od] | OD450 [5] [od] | OD450 [6] [od] | OD450 [7] [od] | OD450 [8] [od] | OD450 [9] [od] | A450 ratio (293/D9/hPAR-2rec to 293/D9 cells) [10] | Kd [11] [nM] | T1/2 [11] [min] | Kd [12] [nM] | T1/2 [12] [min]
H2M611N (antibody, V domains shown, chimeric: human variable, mouse constant domains) VH: EVQLLESGGGLVQPGGSLRLSCAASGFTFSSYAMTWVRQAPGKGLYWVSAISGSGGSAYYADSVKGRFTISRDNSKNTLYLQMNSLRAEDTAVYYCAKEGDSGYDLDYWGRGTLVTVSS VL: DIQMTQSPSSLSASVGDRVTITCRARQGISNYLAWLQQKPGKAPKSLIYAASSLQSGVPSKFSGSGSGTDFTLTISSLQPEDFATYYCQQYKSSPLTFGGGTKVEIK | – | 1 to 4 | 1 to 4 | 1 to 4 | 1 to 4 | 1 to 4 | 0 to 0.09 | 1 to 4 | 0 to 0.09 | – | 1090 | 1.2 | 72.8 | 4.1
H1M612N (antibody, V domains shown, chimeric: human variable, mouse constant domains) VH: EVQLVESGGGLVQPGRSLRLSCAASGFTFDDYAMHWVRQAPGKGLEWVSGITWNSGNMAYADSVKGRFTISRDNAKNSLYLQMNSLRAEDTALYYCAKENWAFDYWGQGTRVIVSS VL: not shown | 180 | 1 to 4 | 0 to 0.09 | 0 to 0.09 | 0 to 0.09 | 1 to 4 | 0 to 0.09 | 1 to 4 | 0 to 0.09 | – | – | – | – | –
H1M619N (antibody, V domains shown, chimeric: human variable, mouse constant domains) VH: EVQLVESGGGLVQAGRSLRLSCAASGFTFDDYAMHWVRQAPGKGLEWVSGISWNSGSRGYADSVKGRFTISRDNAKNSLHLQMYSLRAEDTALYYCAKENWSFDYWGQGTLVTVSS VL: DIVMTQTPLSSPVTLGQPASISCRSSQSLVHSDGNTYLSWLQQRPGQPPRLLIYKISYRFSGVPDRFSGSGAGTDFTLKISRVATEDVGVYYCMQATQLPYTFGQGTKLEIK | 164 | 1 to 4 | 0 to 0.09 | 0 to 0.09 | 0 to 0.09 | 1 to 4 | 0 to 0.09 | 1 to 4 | 0 to 0.09 | – | – | – | – | –
H2M614N (antibody, V domains shown, chimeric: human variable, mouse constant domains) VH: EVQLVESGGGLVQPGRSLRLSCAASGFTFDDYAMHWVRQVPGKGLEWVSGITWNSGSIDYADSVKGRFTISRDNAKNSLYLQMNSLRAEDTAFYYCVKEDEAFDYWGQGTLVTVSS VL: not shown | 470 | 1 to 4 | 0 to 0.09 | 0 to 0.09 | 0 to 0.09 | 1 to 4 | 0 to 0.09 | 0.5 to 0.99 | 0 to 0.09 | – | – | – | – | –
H1M613N (antibody, V domains shown, chimeric: human variable, mouse constant domains) VH: EVQLVESGGGLVQPGRSLRLSCAASGFTFDDYAMHWVRQAPGKGLEWVSGISWNSGSIGYADSVKGRFTISRDNAKNSLYLQMNSLRAEDTALYYCAKDRFPPYKYNSGGFSDAFEIWGQGTMVTVSS VL: not shown | 2100 | – | 0.5 to 0.99 | – | – | 1 to 4 | – | 1 to 4 | 1 to 4 | – | – | – | – | –

Next, values leading:

Kd [1] [nM] | OD450 [2] [od] | OD450 [3] [od] | OD450 [4] [od] | OD450 [5] [od] | OD450 [6] [od] | OD450 [7] [od] | OD450 [8] [od] | OD450 [9] [od] | A450 ratio (293/D9/hPAR-2rec to 293/D9 cells) [10] | Kd [11] [nM] | T1/2 [11] [min] | Kd [12] [nM] | T1/2 [12] [min] | Binder
162 | 1 to 4 | 0 to 0.09 | 0 to 0.09 | 0 to 0.09 | 1 to 4 | 0 to 0.09 | 1 to 4 | 0 to 0.09 | 2.18 | – | – | – | – | H1M615N (antibody, V domains shown, chimeric: human variable, mouse constant domains) VH: EVQLVESGGGVVQPGRSLRLSCAASGFTFDDYTMHWVRQVPGKDLKWVSGITWNGGRKAYADSVKGRFTISRDNAKNSLFLQMNSLRAEDTAFYYCAKEDEAFDYWGQGTLVTVSS VL: not shown
144 | 1 to 4 | 0 to 0.09 | 0 to 0.09 | 0 to 0.09 | 1 to 4 | 0 to 0.09 | 1 to 4 | 0 to 0.09 | 2.78 | – | – | – | – | H1M616N (antibody, V domains shown, chimeric: human variable, mouse constant domains) VH: EVQLVESGGGLAQPGRSLRVSCSASGFNFDDYAMHWVRQAPGKGLEWVSGISWNSGSRGYADSVKGRFTISRDNAKNSLYLQMNSLRAEDTALYYCVKENWAFEYWGQGTLVTVSS VL: DIVMTQTPLSSPVTLGQPASISCRSSHSLVHSDGSTYLSWLQQRPGQPPRLLIYKISNRFSGVPDRFSGSGAGTDFTLKISRVEAEDVGLYYCMQATQFPYTFGQGTKLEIK
510 | 1 to 4 | 0 to 0.09 | 0 to 0.09 | 0 to 0.09 | 1 to 4 | – | 1 to 4 | 0.5 to 0.99 | – | – | – | – | – | H1M595N (antibody, V domains shown, chimeric: human variable, mouse constant domains) VH: EVQLVESGGGLVQPGGSLRLSCAASGFTFSSYDMHWVRQVTGKGLEWVSVIGTVGDTYYPGSLKGRFTISRENAKNSLYLQMNTLRAGDTAVYYCARTGAAAHSYYYGMDVWGQGTMVTVSS VL: not shown
– | 1 to 4 | 0 to 0.09 | 0 to 0.09 | 0 to 0.09 | 1 to 4 | 0 to 0.09 | 1 to 4 | 0 to 0.09 | – | – | – | – | – | H2M609N (antibody, V domains shown, chimeric: human variable, mouse constant domains) VH: EVQLVESGGGLVQPGRSLRLSCAASGFTFDDYAMHWVRQAPGKGLEWVSGISWNSGSKGFADSVKGRFTISRDNAKNSLYLQMNSLRVEDTALYYCAKENWSFDYWGQGTLVTVSS VL: DIVMTQTPLSSPVTLGQPASISCRSSQSLVHSDGNIYLSWLQQRPGQPPRLLIYKISNRFSGVPDRFSGSGAGTDFTLKISRVEAEDVGIYYCMQASHFPYTFGQGTKLEIK
– | 1 to 4 | 0 to 0.09 | 0 to 0.09 | 0 to 0.09 | 0.5 to 0.99 | 0 to 0.09 | 1 to 4 | 0 to 0.09 | – | – | – | – | – | H3M620N (antibody, V domains shown, chimeric: human variable, mouse constant domains) VH: EVQLVESGGNVVRPGGSLRLSCAASGFTFDDYGMTWVRQVPGKGLEWVSGINWNGGSTDYADSVKGRFTISRDNAKNSLYLQMNSLRAEDTALYYCARDKGFYGMDVWGQGTTVTVSS VL: DIVMTQSPDSLAVSLGERATINCKSSQNPLYNSNKKKYLAWYQQKPGQPPKLVIYWASTRESGVPDRFSGSGSGTDFTLTITSLQAEDVAVYYCQQYYSTPYTFGQGTKLEIK
2100 | – | 0.5 to 0.99 | – | – | 1 to 4 | – | 1 to 4 | 1 to 4 | – | – | – | – | – | H1M592N (antibody, V domains shown, chimeric: human variable, mouse constant domains) VH: EVQLVESGGGLVQPGRSLRLSCAASGFTFDDYAMHWVRQAPGKGLEWVSGISWNSGSIGYADSVKGRFTISRDNAKNSLYLQMNSLRAEDTALYYCAKDRFPPYKYNSGGFSDAFEIWGQGTMVTVSS VL: not shown
